A short description of series [1]: melting temperature (DSF); higher = more thermostable. The essentials:
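On a Bio-Rad CFX96, fluorescence of 45 μL enzyme (0 to 0.3 mg/mL) mixed with 5 μL 5X Sypro Orange in sealed PCR plates was followed from 25 °C through 250 cycles of 0.3 °C, with a 0.3 °C/s ramp. The enzymes had been expressed in E. coli C41(DE3), taken up on nickel beads and released by SUMO protease. Melting temperature, measured by differential scanning fluorimetry, is the value given.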

Series [2] in a line: PET hydrolysis, aromatic products released after 48 h (umol product/mg enzyme); higher = more PET depolymerization activity. The essentials:
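Tagless, SUMO-cleaved candidate enzymes were purified on nickel beads, and 5 μg (50 μL) was added to 3.5 mg amorphous PET film or crystalline PET powder in 450 μL buffer. Buffers were 50 mM NaCitrate (pH 4.5, 5.5), 50 mM NaPhosphate (pH 6.5, 7.5) or glycine (pH 8.5). Sealed plates were incubated 48 h at 40 or 60 °C without shaking. PET hydrolysis activity is the aromatic product in the supernatant, read by absorbance at 260 and 280 nm against buffer blanks and expressed per mg enzyme.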

The nature of series [3]: purified protein yield per well (BCA); higher = higher soluble expression. The procedure, abridged: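 Purified protein yield per well is reported, as measured by the Pierce Rapid Gold BCA kit. The enzymes came from E. coli C41(DE3) autoinduction cultures of 2 mL with 100 µg/mL kanamycin, held at 37 °C for 2 h and 18 °C for 40 h, then lysed and purified on Ni-charged magnetic beads with SUMO protease release. The detection threshold is 25 ug (0.1 mg/mL), and lower values are under it.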

Setting [4] is: substrate: aFilm, 40 °C, pH 4.5.
The mark [5] stands for this setting: substrate: aFilm, 40 °C, pH 5.5.
The mark [6] stands for this setting: substrate: aFilm, 40 °C, pH 6.5.
Setting [7] is: substrate: aFilm, 40 °C, pH 7.5.
Where [8] appears, read: substrate: aFilm, 60 °C, pH 4.5.
[9] abbreviates: substrate: aFilm, 60 °C, pH 5.5.
Where [10] appears, read: substrate: aFilm, 60 °C, pH 6.5.
The mark [11] stands for this setting: substrate: aFilm, 60 °C, pH 7.5.
Where [12] appears, read: substrate: cryPow, 40 °C, pH 4.5.
Setting [13] is: substrate: cryPow, 40 °C, pH 5.5.
[14] abbreviates: substrate: cryPow, 40 °C, pH 6.5.
[15] abbreviates: substrate: cryPow, 40 °C, pH 7.5.
Where [16] appears, read: substrate: cryPow, 60 °C, pH 4.5.
The mark [17] stands for this setting: substrate: cryPow, 60 °C, pH 5.5.
[18] abbreviates: substrate: cryPow, 60 °C, pH 6.5.
[19] abbreviates: substrate: cryPow, 60 °C, pH 7.5.

± gives the standard deviation of the averaged measurements.

As to “RPASAQDNPYERGPAPTVSSVAAQRGTFATAELTVPPGNGFNGGKIYYPTDTSLGTWGAVAAVPGYTAKWAAEGAWMGPWLASFGFVVIGIDTNSPNDYDTARGTQLLAALDYLTQKSAVRDRVDPNRLGVIGHSMGGGGAISAAVRRPSLKAALPLAPFSPSQNLSTLRVPTVIMGARDDGTVTPSYLDGLYGGMPAGTQSAFIELSSGGHGFPTWGNSNVTRRMIPWLKIFLDNDTRYTQFLCPSLADTSGVSRSKLKCPYVPPGGTTPPPPSGGPIVGAASGRCLEVPNSSQTNGTQVQLWDCLDRAGQKWTRTAAGELRVYGTKCLDAEASGTSPGTRVVIWDCHGGQNQQWNVNSNGTITSARSGLCLDAYNAGTGNGTQGVLWNCNGGANQRWALG [TEP024]”, in series [1], the melting temperature was 61 C. Moreover, the PET hydrolysis in series [2] (setting [4]), in series [2] (setting [5]), in series [2] (setting [6]), in series [2] (setting [7]), in series [2] (setting [8]) and in series [2] (setting [9]) was less than 3 throughout. In addition, the PET hydrolysis in series [2] (setting [10]) is less than 3; in series [2] (setting [11]) it was less than 3; in series [2] (setting [12]) it was less than 3; in series [2] (setting [13]), 4.5 ± 0.71; in series [2] (setting [14]) it was 11.5 ± 2.1; in series [2] (setting [15]), 14.5 ± 0.71. Also, the PET hydrolysis in series [2] (setting [16]), in series [2] (setting [17]), in series [2] (setting [18]) and in series [2] (setting [19]) was less than 3 in each case. Also, the “purified protein yield per well” value in series [3] turned out to be 368 µg.
For the sequence “RPASAQDNPYERGPDPTVSSVAAQRGTFATAEVTVPPGNGFNGGKIYYPTDTSKGTWGAVAAVPGYTAKWAAEGAWMGPWLASFGFVVIGIDTNSPNDYDTARGTQLLAALDYLTQKSPVRDRVDPNRLGVIGHSMGGGGAISAAERRPSLKAALPLAPFSPSQNLSSLRVPTMIMGARDDGTVTPSYLNGLYAGMPAATPSAYIELTSGGHGFPTWGNSNVTRRTIPWLKIFLDNDTRYTQLLCPSPADRTGVSRSQVKCAYVPGGGTTPPPPSSGQIVGAASARCLDVPNSSQTNGTQLQLWDCLDQTSQKWARTDAGELRVYGNKCLDAEASGTSAGTRAIIWDCHGGQNQRWNVNANGTITSARSGLCLDANNAGTANGTQAILWTCNGGSNQRWTLR [TEP097]”, the melting temperature in series [1] came to 64.6 C. The PET hydrolysis in series [2] (setting [4]), in series [2] (setting [5]), in series [2] (setting [6]), in series [2] (setting [7]), in series [2] (setting [8]) and in series [2] (setting [9]) was less than 3 in each case. In addition, the PET hydrolysis in series [2] (setting [10]) is less than 3; in series [2] (setting [11]), less than 3; in series [2] (setting [12]) it was 8; in series [2] (setting [13]) it was 13 ± 1.4; in series [2] (setting [14]), 31 ± 7.1; in series [2] (setting [15]) it was 30.5 ± 2.1. For the same sequence, the PET hydrolysis in series [2] (setting [16]) is less than 3; in series [2] (setting [17]), 4.5 ± 0.71; in series [2] (setting [18]), 4.5 ± 0.71; in series [2] (setting [19]), 2 ± 2.8. Also, in series [3], the “purified protein yield per well” value came out at 270 µg.
As for “SAQVTRQAAGSYARGPAPTLAGIRAALGPFAYSTVTVTAAQAGGAFGGGTIYYPDDTSQGTFGGVAAVPGYQSAEKAVAWLGPRLASQGFVVITIATNGLTDQPTARGKQLLGALDYLTAQSPAAVRQRLDPNRLAVTGHSMGGGGTLYAAWTRPSLKAAVPLAPWHTIKNWSGITVPTLVQGGTQDTTAQVGTFAEPIYQSLTGARERAYAEIADAAHGTFVRENPLIGALEVAWLKRFVDDDGRYEQFLCPAPADSELTEYRDSCPSS [DP009]”, the melting temperature in series [1] came out at 46.9 C. In addition, the PET hydrolysis in series [2] (setting [13]) is 4; in series [2] (setting [14]) it was 5; in series [2] (setting [15]), 6; in series [2] (substrate: cryPow, 40 °C, pH 8.5) it was 10; in series [2] (setting [17]) it was less than 3; in series [2] (setting [18]), less than 3. Besides, the PET hydrolysis is less than 3 in series [2] (setting [19]) and less than 3 in series [2] (substrate: cryPow, 60 °C, pH 8.5). Also, the “purified protein yield per well” value in series [3] was determined as 165 µg.
“SNPAPDTGSGDGSSSQYQIGPDPTVSFLEASSGPFSVRTSNVSSLVSGFGGGTIHYPTGVNRPMAAIVVIPGFVSAESSIDWWGPKLASYGFVVMTIGTNSGFDQPPSRARQINNALDYLVAQNTNSRSPVNGMIDTNRLGAMGWSMGGGGTLRVAEEGRIKAAIPLAPWDTTSFRSNRTPTLIFACGSDSIAPVRTHASPFYNQIPTSTPKIFIEINRGNHYCANGGNSNNATLGRLGVAWMKRFLDEDRRYSQFLCGPRHTSDRNISESRDTCNF [ESM186]”: the melting temperature in series [1] was found to be 53.8 C. For the same sequence, the PET hydrolysis in series [2] (setting [12]) is less than 3; in series [2] (setting [13]), less than 3; in series [2] (setting [14]), 3; in series [2] (setting [15]), 13. The “purified protein yield per well” value in series [3] stood at 43 µg.
“SPSPGTPGGDNPYQRGPDPTVASVAAQYGPFATAQITVPPGNGFNGGFIYYPTDTSHTYGAVAIVPGYTALFADEEAWMGPRLASFGFVVIGVETNSRTDYDTARGTQLLAALDYLTNSSAVRDRVDRNRLSVIGHSMGGGGSLYAATQRPSLKAAIGLAPFKPSGNLASDTVPTMIIGGINDTTVTPSYLDGLYPTLPAATPGAYLQLANADHLYFTRPNDIELRSQIEWLKIFVDNDTRYTPFLCPSVKDTTGIVRSSVKCSTVPGGGSTPSSSRILGTQSGRCVDVPGATHNNGTRVQLYDCNGQANQQWTYTSSKQLTVYGTVCLDAAGSGNGSAVQIYSCNGQANQQWNVNANGTITGVQSGRCLDVWGTGNGQQIQIYDCNGQANQKFSLN [ESM136]” gave a melting temperature in series [1] of 55.6 C. For the same sequence, the PET hydrolysis in series [2] (setting [12]) was 5; in series [2] (setting [13]), 18; in series [2] (setting [14]), 13; in series [2] (setting [15]) it was less than 3; in series [2] (setting [16]), less than 3; in series [2] (setting [17]), less than 3. Further, the PET hydrolysis in series [2] (setting [18]) and in series [2] (setting [19]) was less than 3 throughout. The “purified protein yield per well” value in series [3] was found to be 61.4 µg.
“SSCDIMGDVNEDSEVDIVDALLIAQAYVGLNPTIEYHPCADVNCSGSVDIVDALLIAQKYVGLISEFSCQNTPEPTIEPTSAPVLNIACGSSSALGIFQEDQYYSGGSTHNNSNTIDVSRITVNTPPTGLFNNERYGEMSYTIPDLSAGDTYTVTLYFAETYLTSPGSRLFNVSINSTEVLTNFDIYAAAGGQNNGISQSFITTANTSGRIVIDFTAVTENPKINGISIVTGIGPTNIPTPEPTPTPENSGFQRGPDPSLESISANRGTFATAELTFPAGNGFGGGFIYYPTDTSLGTWAAVAICPGGSAKFANEETWMGHWLASFGFVVIGMETNNTYDYPESRGTQLLAALDYLTQKSAVKDRVDPDRLMVMGHSMGGGGAFHAAMARSSLKTMVALAPWFNSSLTSPSMTNLHMPAMIISARNDTVVTPASCSAIYDKIPTTTQRAWVELAADDHLGFTKSNPTEMRVLIPWMKIFLDNDERYVQFLCPIANSSNISVYKNSCPFVP [TEP039]” gave a melting temperature in series [1] of 50.8 C. Besides, the PET hydrolysis in series [2] (setting [12]), in series [2] (setting [13]), in series [2] (setting [14]) and in series [2] (setting [15]) was less than 3 each time. For the same sequence, the “purified protein yield per well” value in series [3] was found to be 34.3 µg.

These data come from the supplement of paper PMC12455559.
